How the values were obtained:
[1] = target: T1, nerve growth factor (NGF) (UniProt P01138 122-241, limits assumed, iodinated (125I) where used as tracer); assay: saturation binding with 125I-NGF, immunoadhesin
T1 construct: also called 125I-NGF; labelled NGF

[2] = target: T2, trkB-IgG immunoadhesin (human trkB extracellular domain fused to human IgG-1 Fc) (human); assay: competitive displacement of iodinated BDNF from trkB-IgG by unlabelled BDNF
T2 construct: also called chimeras containing trkB
T2 sequence (Q16620 32-423): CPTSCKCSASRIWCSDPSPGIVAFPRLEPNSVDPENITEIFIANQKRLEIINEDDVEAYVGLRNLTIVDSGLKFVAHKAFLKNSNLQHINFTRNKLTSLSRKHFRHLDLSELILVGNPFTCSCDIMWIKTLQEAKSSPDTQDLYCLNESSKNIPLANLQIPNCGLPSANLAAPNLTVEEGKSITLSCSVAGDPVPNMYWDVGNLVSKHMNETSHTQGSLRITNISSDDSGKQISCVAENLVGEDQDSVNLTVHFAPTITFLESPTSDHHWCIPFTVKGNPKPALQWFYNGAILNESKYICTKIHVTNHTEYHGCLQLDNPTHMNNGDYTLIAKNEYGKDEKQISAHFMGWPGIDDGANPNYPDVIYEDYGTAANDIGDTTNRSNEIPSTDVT

[3] = target: T1, nerve growth factor (NGF); assay: NGF binding to immunoadhesin (competitive displacement, as in Example 4)
[4] = target: T2, trkB-IgG immunoadhesin (human trkB …); assay: competitive displacement of iodinated BDNF from trkB-IgG by unlabelled NT3
[5] = target: T3, trkA-IgG immunoadhesin (human trkA extracellular domain fused to human IgG-1 Fc) (human, UniProt P04629 33-408); assay: competitive displacement of iodinated NGF from trkA-IgG by unlabelled NT3
T3 construct: also called native trkA; chimeras containing trkA extracellular domain; not shown: human IgG-1 hinge-CH2-CH3 (aspartic acid 216 to residue 441)

B1: trkC variant s5A immunoadhesin (trkC Val297 to Thr420 replaced with trkA Ser277 to Val402) (Fc fusion, not shown: a dimerising Fc or GST)
chain: CPANCVCSKTEINCRRPDDGNLFPLLEGQDSGNSNGNANINITDISRNITSIHIENWRSLHTLNAVDMELYTGLQKLTIKNSGLRSIQPRAFAKNPHLRYINLSSNRLTTLSWQLFQTLSLRELQLEQNFFNCSCDIRWMQLWQEQGEAKLNSQNLYCINADGSQLPLFRMNISQCDLPEISVSHVNLTVREGDNAVITCNGSGSPLPDVDWIVTGLQSINTHQTNLNWTNVHAINLTLVNVTSEDNGFTLTCIAENVVGMSNASSVQVNVSFPASVQLHTAVEMHHWCIPFSVDGQPAPSLRWLFNGSVLNETSFIFTEFLEPAANETVRHGCLRLNQPTHVNNGNYTLLAANPFGQASASIMAAFMDNPFEFNPEDPIPDTNSTSGDPV
notes: also called s5A chimera
[1]
  Kd: 0.0386 nM

B2: brain-derived neurotrophic factor (BDNF) (ligand, UniProt P23560 129-247, looked up)
chain: HSDPARRGELSVCDSISEWVTAADKKTAVDMSGGTVTVLEKVPVSKGQLKQYFYETKCNPMGYTKEGCRGIDKRHWNSQCRTTQSYVRALTMDSKKRIGWRFIRIDTSCVCTLTIKRGR
modifications: radiolabelled (iodinated) where used as tracer
notes: also called NT-2; labelled BDNF
[2]
  IC50: 0.081 nM

B3: trkA variant ?4A immunoadhesin (deletion of Val193 to Val282 of trkA) (Fc fusion, not shown: a dimerising Fc or GST)
chain: AAPCPDACCPHGSSGLRCTRDGALDSLHHLPGAENLTELYIENQQHLQHLELRDLRGLGELRNLTIVKSGLRFVAPDAFHFTPRLSRLNLSFNALESLSWKTVQGLSLQELVLSGNPLHCSCALRWLQRWEEEGLGGVPEQKLQCHGQGPLAHMPNASCGSFPASVQLHTAVEMHHWCIPFSVDGQPAPSLRWLFNGSVLNETSFIFTEFLEPAANETVRHGCLRLNQPTHVNNGNYTLLAANPFGQASASIMAAFMDNPFEFNPEDPIPDTNSTSGDPV
notes: 'Mature' variant
[3]
  fold reduction of affinity for NGF relative to native trkA: ~2 fold

B4: neurotrophin-3 (NT-3) (ligand, UniProt P20783 139-257, looked up)
chain: YAEHKSHRGEYSVCDSESLWVTDKSSAIDIRGHQVTVLGEIKTGNSPVKQYFYETRCKEARPVKNGCRGIDDKHWNSQCKTSQTYVRALTSENNKLVGWRWIRIDTSCVCALSRKIGRT
modifications: radiolabelled (iodinated) where used as tracer
notes: also called labelled NT3; cold NT3
[4]
  IC50: 18 nM
[5]
  IC50: 20 nM

— patent publication US20040058416A1 (published 2004)
